# B1: Mitochondrial chaperone BCS1 (Homo sapiens), Q9Y276 (parent)
# chain: MPLSDFILALKDNPYFGAGFGLVGVGTALALARKGVQLGLVAFRRHYMITLEVPARDRSYAWLLSWLTRHSTRTQHLSVETSYLQHESGRISTKFEFVPSPGNHFIWYRGKWIRVERSREMQMIDLQTGTPWESVTFTALGTDRKVFFNILEEARELALQQEEGKTVMYTAVGSEWRPFGYPRRRRPLNSVVLQQGLADRIVRDVQEFIDNPKWYTDRGIPYRRGYLLYGPPGCGKSSFITALAGELEHSICLLSLTDSSLSDDRLNHLLSVAPQQSLVLLEDVDAAFLSRDLAVENPVKYQGLGRLTFSGLLNALDGVASTEARIVFMTTNHVDRLDPALIRPGRVDLKEYVGYCSHWQLTQMFQRFYPGQAPSLAENFAEHVLRATNQISPAQVQGYFMLYKNDPVGAIHNAESLRR
# Variants of: B1
# Conditions: with letm1_human LETM1, O95202
# Chain of letm1_human LETM1, O95202 (O95202 whole entry): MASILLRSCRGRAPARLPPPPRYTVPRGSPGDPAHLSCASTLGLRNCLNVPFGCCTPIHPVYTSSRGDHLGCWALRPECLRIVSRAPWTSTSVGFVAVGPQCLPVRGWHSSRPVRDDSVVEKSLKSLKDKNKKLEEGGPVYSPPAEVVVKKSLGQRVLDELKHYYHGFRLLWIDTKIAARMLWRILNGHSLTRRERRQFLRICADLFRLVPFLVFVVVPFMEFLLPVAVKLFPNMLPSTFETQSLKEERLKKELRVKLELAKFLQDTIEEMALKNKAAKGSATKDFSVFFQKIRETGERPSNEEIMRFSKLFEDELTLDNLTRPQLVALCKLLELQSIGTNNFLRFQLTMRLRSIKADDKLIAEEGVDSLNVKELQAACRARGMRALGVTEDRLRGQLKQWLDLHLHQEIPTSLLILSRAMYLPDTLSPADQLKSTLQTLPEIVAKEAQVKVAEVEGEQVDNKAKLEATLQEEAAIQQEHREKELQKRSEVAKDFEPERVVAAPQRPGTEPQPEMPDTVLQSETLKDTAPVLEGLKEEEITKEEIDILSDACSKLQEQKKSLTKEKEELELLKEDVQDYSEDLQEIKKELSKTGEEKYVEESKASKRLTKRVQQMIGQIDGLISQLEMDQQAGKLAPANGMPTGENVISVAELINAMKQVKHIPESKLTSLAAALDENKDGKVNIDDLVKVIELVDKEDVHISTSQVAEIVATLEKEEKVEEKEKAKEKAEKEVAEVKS
row,effect of a mutation on the interaction,Variant
1,disrupting interaction,R155P

# Reference: IntAct's records for PubMed 18628306
